Patent US8124424B2, “Single molecule-format bioluminescent probe” (National Institute of Advanced Industrial Science and …, priority 2007, dated 2012)

Key:
AR LBD [1] = molecular target: T1, AR LBD (Homo sapiens, UniProt P10275); test: Inhibitory effects of androgen antagonists on DHT-induced luminescence, HeLa cells carrying pAR-NC and pTK-RLuc; type: cell-based; design: The cDNA-encoding AR LBD (672-910 AA) was modified by PCR; expressed in transfected cells; host or cells: HeLa; settings: 5×10^−4 M antagonist 20 min, then 10^−5 M DHT 20 min, FIG. 8
T1 sequence (P10275 672-910): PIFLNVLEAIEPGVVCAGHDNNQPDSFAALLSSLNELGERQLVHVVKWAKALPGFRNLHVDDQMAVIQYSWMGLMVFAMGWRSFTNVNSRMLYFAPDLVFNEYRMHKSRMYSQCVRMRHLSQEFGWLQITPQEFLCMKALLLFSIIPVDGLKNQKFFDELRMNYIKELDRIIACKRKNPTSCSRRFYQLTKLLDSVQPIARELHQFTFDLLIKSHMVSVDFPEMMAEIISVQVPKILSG
Method: HeLa cells were transfected with pAR-NC and pTK-RLuc, and extensively incubated for 16 h. […] The luminescence intensities of each well were determined with a Dual-luciferase assay kit (Promega).

AR LBD [2] = test: Comparison of the DHT-induced luminescence of probes pAR-CN, pAR-NC, pAR-mut in HeLa cells; type: cell-based, human; settings: 10^−5 M DHT stimulation, FIG. 3
Method: Cervical carcinoma-derived HeLa cells were sub-cultured in 12-well plates in Dulbecco's modified eagle's medium (DMEM; Sigma) supplemented with 10% steroid-free fetal bovine serum (FBS) and 1% penicillin-streptmycin (P/S) at 37° C. in a 5% CO2 incubator. HeLa cells in 12-well plates were transfected with pAR-NC, pAR-CN, or pAR-mut using a transfection reagent, TransIT-LT1 (Minis), which guarantees about 8% transfection efficiency to HeLa cells when incubated for 24 h. The cells were incubated for 12 h and then used for the following experiments.
HeLa cells in 12-well plates were transfected with the plasmids and incubated for 16 h. […] The recovered enzyme activities by ligands were estimated with a luminescence substrate kit, Bright Glo (Promega) or Dual-luciferase assay kit (Promega), according to the manufacturer's manuals. […] After a 3 min incubation at 37° C., the luminescence intensities from the cell lysates were recorded with a luminometer (Minilumat LB9506; Berthold). The protein amounts in the cell lysates were subsequently determined using a Bradford reagent for a normalization of the luminescence intensities. In specific, the firefly luminescence, which was normalized against the determined protein amount, was expressed as “RLU/protein (Bright Glo)”. The unit means the firefly luminescence intensity from the 1 μg of cell lysate.

AR LBD [3] = molecular target: T1, AR LBD; test: Ligand selection of pSimbe-LXA probe in four cell lines (MCF-7, CHO, HeLa, NIH 3T3); type: cell-based; design: The cDNA-encoding AR LBD (672-910 AA) was modified by PCR; expressed in transfected cells; host or cells: HeLa; settings: 10^−5 M E2, T, DHT, 20 minutes, FIG. 16
AR LBD [4] = molecular target: T1, AR LBD; test: Androgenic activity of ligands with pSimbe (CBLuc) probes in MCF-7 cells (dose-response, time-course, repetitive measurement, ligand panel); type: cell-based; settings: two stimulations with 10^−5 M DHT for 20 minutes with medium replacement, FIG. 21
Method: As controls, vehicle #1 (0.1% DMSO) and vehicle #2 (0.02M phosphoric buffer saline (PBS)) were tested.

[5] = molecular target: T2, androgen receptor ligand binding domain (AR LBD; 672-910 AA) (human, UniProt P10275 672-910); test: cell-based or functional assay
T2 sequence (looked up): T1 sequence (P10275 672-910)

## CC12CC1(C)C(=O)N(c1cc(Cl)cc(Cl)c1)C2=O (centres unmarked) [procymidone]
AR LBD [1]
  percentage inhibition of the DHT-induced luminescence: 68%

## pAR-mut: plasmid/probe with an alanine mutant (AQNLF) of the FQNLF motif (RGAAQNLFQSV)
AR LBD [2]
  luminescence intensities of probe-carrying cells compared among the three probes: four times weaker luminescence intensities than the cells carrying pAR-NC

## pSimbe-LXA: CBLuc probe with AR LBD and reverse sequence of LXXLL motif from Xenopus TIF2 (SSDQLLRHLIKHK)
AR LBD [3]
  luminescence intensity versus the background in cell lines: marked increase in the luminescence intensity versus the background
AR LBD [4]
  reversibility of luminescence on repeated DHT stimulation: reversible recovery in the luminescence intensities

B1: AR N-terminal motif peptide (11 AA; 20RGAFQNLFQSV30), 'FQNLF' motif of human AR NTD (peptide)
peptide: RGAFQNLFQSV
[5]
  t1/2 of the rise in luminescence after 10^-6 M DHT, HeLa cells carrying pAR-NC: 4.5 min
